In US8691225B2, “Antibodies against the ectodomain of ErbB3 and uses thereof” (Merrimack Pharmaceuticals, Inc., priority 2007, dated 2014):

Experiments:
BSA = BSA (Bos taurus, UniProt P02769); assay: binding specificity ELISA; parameters: species or system bovine; details: IgG2 isotype of Ab #6
Protocol: 96-well NUNC MAXISORB plates are coated by overnight incubation at room temperature with 50 μl/well of 5 μg/ml of individual proteins. The proteins are recombinant human EGFR ectodomain, BSA, recombinant human ErbB3 ectodomain and TGF-α. The next morning, plates are washed 3 times with […] of PBST (0.05% Tween-20) in the BIOTEK plate washer. The wells are blocked for 1 hr at room temperature with 2% BSA in PBS and washed again as before. […] All samples are run in duplicate and incubated for 2 hrs at 4° C. on a plate shaker. The plates are washed again as before. 50 μl of human IgG-Fc detection antibody (HRP conjugated, Bethyl Laboratories, Inc; 1:75000 dilution in 2% BSA, PBST) is added and the plates are incubated for 1 hr at room temperature. The plates are washed again as before. 50 μL of SUPERSIGNAL ELISA Pico substrate is added and the plate is read on the FUSION plate reader (Packard/Perkin Elmer). The data is analyzed using the EXCEL program. Duplicate samples are averaged and the error bars represent the standard deviation between the two replicates.

ErbB3 in MALME-3M cells = biological target: T1, ErbB3 in MALME-3M cells (Homo sapiens, UniProt P21860); assay: total ErbB3 levels in MALME-3M cells in vitro by ELISA; format: cell-based; details: 24 hours
T1 construct: ErbB3 expressed on MALME-3M melanoma cells; host or cells: MALME-3M melanoma cells
Protocol: MALME-3M cells are seeded in 96 well tissue culture plates and grown in RPMI-1640 media supplemented with antibiotics, 2 mM L-glutamine and 10% fetal bovine serum (FBS) for 24 hours at 37° C. and 5% carbon dioxide. Media are then switched to the same medium without FBS and with and without the antibody at concentrations of 1 uM, 250 nM, 63 nM, 16 nM, 4.0 nM, 1.0 nM, 240 pM, 61 pM and 15 pM. Medium containing no FBS or antibody is used as control. Cells are grown for 24 hours at 37° C. and 5% carbon dioxide, washed with cold PBS, then harvested with mammalian protein extract (MPER) lysis buffer (Pierce, 78505) to which 150 mM NaCl, 5 mM sodium pyrophosphate, 10 uM bpV (phen), 50 uM phenylarsine, 1 mM sodium orthovanadate, and protease inhibitor cocktail (Sigma, P2714) is added. Cell lysates are diluted two-fold with 4% bovine serum albumin in PBST (0.1% tween-20), then analyzed by ELISA with mouse anti-human ErbB3 capture antibody and biotinylated mouse anti-human ErbB3 secondary detection antibody. Signal is generated with streptavidin conjugated to horseradish-peroxidase reacted with SUPERSIGNAL ELISA Pico chemiluminescent substrate (Pierce, 37070). ELISAs are quantitated using a luminometer.

AdrR (ovarian) xenograft = assay: xenograft tumor growth in nude mice; format: in vivo, mouse; details: 300 ug every three days (Q3d); p<0.05
Protocol: (§1) For example, T-cell deficient nu/nu mice (3-4 week old female mice originated at NIH; outbred; albino background) are purchased from Charles River Labs (Wilmington, Mass.) for xenograft studies. AdrR cells for implantation are grown in culture (RPMI media, 10% FBS, L-glutamine and antibiotics, 37° C., 5% CO2) to about 85% confluency before harvesting. Cells are kept on ice until implantation. Mice are implanted via subcutaneous injection with 100 μl AdrR cells (6×10^6 cells in PBS) on the right flank and allowed to recover while being monitored for initial tumor growth.
(§2) Tumors are measured (length by width) by digital caliper and the mice are dosed with IgG2a (Sigma, M7769-5MG) by intravenous injection.
(§3) Final tumor measurements (L×W) are taken, the mice are euthanized by CO2 asphyxiation and tumors are excised, snap frozen in liquid nitrogen, and are stored at −80° C. (for biochemical analysis). Final tumor measurements are analyzed and graphed by tumor area and tumor volume, as described in Burtrum et al., supra. The data are also analyzed by “normalized” and “non-normalized” means for both tumor volume and tumor area. For the “normalization” of the data, at each time point of measurement, each tumor in each group is divided by the initial tumor size determined by caliper measurement.

[1] = tested on: OvCAR8 (ovarian) xenograft; assay: xenograft tumor growth in nude mice; format: in vivo, mouse
Protocol: as §1, §2, §3

[2] = tested on: Du145 (prostate) xenograft; assay: xenograft tumor growth in nude mice; format: in vivo, mouse
[3] = PK analyses of serum and intra-tumoral levels from xenograft studies; format: in vivo, mouse; details: serum from animals of the xenograft studies
Source text: The data (obtained using the methods described above or minor variations thereof) from three different models derived from human tumor cell lines, AdrR (ovarian), Du145 (prostate) and OvCAR8 (ovarian) data are shown in FIGS. 17A-C and Colo357 (pancreatic) xenograft study data are shown in FIG. 17D.

[4] = tested on: three different xenografts; assay: VEGF secretion in xenografts in vivo
Source text: Inhibition of VEGF correlates with inhibition of ErbB3 phosphorylation (FIG. 24C). […] Inhibition of VEGF secretion is also known in the art to correlate with inhibition of tumor induced angiogenesis, a facilitator of tumor growth.

AdrR spheroids = assay: spheroid growth assay; format: cell-based, human; details: 8 uM
Protocol: (§4) Subconfluent cells are trypsinized, counted, and resuspended in filtered medium. The cell concentration is adjusted to 100,000 cells/ml, and one 20 ul drop (containing 2000 cells) is added to each ring on the underside of the lid of a 96-well plate. The lids with these hanging droplets are then placed back on the original 96-well plate, which contained 100 ul of PBS in each well to maintain moisture. Four days after initial plating, the hanging droplets containing the spheroids are replated into new 96-well plates. This replating involves transferring the lid containing the hanging droplets to a fresh 1% agarose/RPMI-coated 96-well plate that contains 150 ul of medium per well. The plate and lid are then centrifuged together at 500 rpm for 1 minute to transfer the spheroid-containing drops from the lids to the wells. Plates are then further incubated at 37° C. in a humidified CO2 incubator. Spheroids are photographed in an inverted phase contrast microscope. A micrometer scale is also photographed at the same magnification to determine spheroid size. The diameter of the spheroids is determined using METAMORPH image analysis software (MDS Analytical Technologies).
(§5) The diameters of the spheroids are measured using light microscopy (10× objective) at day 1 and day 13.

DU145 spheroids = assay: spheroid growth assay; format: cell-based, human; details: DU145, 8 uM, 3.4 nM HRG
Protocol: as §4, §5

[5] = 300 ug every three days (Q3d), p<0.05

Chain of BSA (P02769 25-607): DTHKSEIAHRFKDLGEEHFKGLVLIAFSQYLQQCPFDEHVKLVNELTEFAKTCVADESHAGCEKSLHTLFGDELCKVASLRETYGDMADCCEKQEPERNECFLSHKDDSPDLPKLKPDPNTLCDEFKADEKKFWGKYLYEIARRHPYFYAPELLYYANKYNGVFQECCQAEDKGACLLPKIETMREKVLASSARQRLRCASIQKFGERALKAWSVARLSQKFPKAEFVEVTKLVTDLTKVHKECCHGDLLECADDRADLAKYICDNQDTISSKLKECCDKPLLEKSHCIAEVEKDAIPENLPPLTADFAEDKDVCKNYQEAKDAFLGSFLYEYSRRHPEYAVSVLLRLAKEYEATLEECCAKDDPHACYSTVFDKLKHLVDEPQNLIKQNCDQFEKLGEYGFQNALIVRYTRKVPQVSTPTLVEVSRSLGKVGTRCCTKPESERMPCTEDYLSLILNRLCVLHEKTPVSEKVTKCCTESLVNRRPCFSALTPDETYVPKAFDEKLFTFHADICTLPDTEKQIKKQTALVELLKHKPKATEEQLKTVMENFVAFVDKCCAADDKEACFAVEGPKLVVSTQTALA

B1: Ab #6: human anti-ErbB3 antibody from Fab-phage library, CDRs SEQ ID NOs:7-12; used as IgG1 and IgG2 isotypes; in phase I trials as MM-121 (antibody, V domains shown)
VH: EVQLLESGGGLVQPGGSLRLSCAASGFTFSHYVMAWVRQAPGKGLEWVSSISSSGGWTLYADSVKGRFTISRDNSKNTLYLQMNSLRAEDTAVYYCTRGLKMATIFDYWGQGTLVTVSS
VL: QSALTQPASVSGSPGQSITISCTGTSSDVGSYNVVSWYQQHPGKAPKLIIYEVSQRPSGVSNRFSGSKSGNTASLTISGLQTEDEADYYCCSYAGSSIFVIFGGGTKVTVL
- binding in ELISA (BSA): did not show any appreciable binding
- decrease of total ErbB3 levels (ErbB3 in MALME-3M cells): about 46.9%
- inhibition of tumor growth (AdrR (ovarian) xenograft): significant inhibition of tumor growth
- inhibition of tumor growth [1, 5]: significant inhibition of tumor growth
- inhibition of tumor growth ([1]; 1500 ug Q3d versus 600 ug): did not result in increased efficacy
- inhibition of tumor growth [2, 5]: significant inhibition of tumor growth
- inhibition of tumor growth ([2]; 600 ug Q3d versus 300 ug): further elevated
- serum retention [3]: dose-dependent increase in the serum retention
- inhibition of VEGF secretion in vivo [4]: inhibiting VEGF secretion in three different xenografts, the highest being in COLO-357 xenograft
- inhibition of HRG-induced spheroid growth (AdrR spheroids; 3.4 nM HRG): inhibits the HRG effect
- inhibition of spheroid growth (AdrR spheroids; day 1 to day 13): inhibits spheroid growth in AdrR cells
- inhibition of HRG-induced spheroid growth (DU145 spheroids): inhibits HRG induced spheroid growth
